According to article PMC5349899:

Key:
[1] = target: biotinylated avi-tagged TGF-β3 (human); assay: SPR; biotinylated avi-tagged TGF-β2 or TGF-β3 captured on streptavidin-coated CM5 chip at 50-80 RU; analytes injected as two-fold dilution series in HBS-EP at 100 µL/min (150 s); BIAcore 3000; global fit to a simple 1:1 model
[2] = target: biotinylated avi-tagged TGF-β2 (human); assay: as above
[3] = target: TGF-β2 (in the calorimeter cell); assay: ITC; ER or RER (50-110 µM) in the syringe, TGF-β2 (5-8 µM) in the cell; 10 mM sodium phosphate pH 7.4, 30 mM CHAPS; 37°C; Microcal PEAQ-ITC

Substance	Kd [1]	koff [1]	kon [1]	Kd [2]	koff [2]	kon [2]	Kd [3]	stoichiometry N [3]	IC50 of inhibition of PAI-1 luciferase reporter activity in Mv1Lu mink lung epithelial cells induced with 20 pM TGF-β1 (TGF-β1)	reduction of Smad2 phosphorylation (Western blot) in MCF-10A cells stimulated with 2 pM TGF-β1 in the presence of 0, 0.01, 0.1, 1 and 10 nM ER (TGF-β1)
ER receptor trap (betaglycan endoglin domain-TβRII; rat BG-human TβRII receptor fusion) (designed binder)	0.0505 nM	1.97e-05 s⁻¹	391000 M⁻¹ s⁻¹	1.44 nM	0.000438 s⁻¹	307000 M⁻¹ s⁻¹	215 nM	1.05 sites	–	–
RER receptor trap (TβRII-betaglycan endoglin domain-TβRII) (designed binder)	0.0244 nM	9.44e-06 s⁻¹	387000 M⁻¹ s⁻¹	–	0.000253 s⁻¹	307000 M⁻¹ s⁻¹	128 nM	1.1 sites	–	–
betaglycan endoglin domain (BGE) (domain or fragment)	94.6 nM	0.0124 s⁻¹	131000 M⁻¹ s⁻¹	30.6 nM	0.00466 s⁻¹	152000 M⁻¹ s⁻¹	–	–	–	–
bivalent TGF-β receptor trap ER (BGE-RII) (from UniProt P37173 23-166)	–	–	–	–	–	–	–	–	14 pM	30%
